Reference: the supplement of paper PMC9170038

Key:
MS2 coat protein [1] = assay: apparent KD of MS2 coat protein, switch OFF state (with FMN for OFF switches, without FMN for ON switches); designed switch direction (-1 OFF switch, 1 ON switch): -1; higher = weaker reporter binding; settings: FMN input: 0 or 200 uM; Eterna round: R93 (includes R88 designs)
Outline: (§1)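 Normalised binding curves from single clusters were fitted, and the median fit for each design is given as apparent KD. The clusters held designed RNA switches transcribed on-chip from Illumina sequencing clusters. These were titrated with SNAP-549-labelled MS2 coat protein (twofold steps from 0.7 or 1.5 nM to 3 µM, 0.8–1.5 h to 10–20 min per step) in 100 mM Tris-HCl pH 7.5, 80 mM KCl, 4 mM MgCl2, without or with constant ligand.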

MS2 coat protein [2] = assay: apparent KD of MS2 coat protein, switch ON state; designed switch direction (-1 OFF switch, 1 ON switch): -1; higher = weaker reporter binding; settings: FMN input: 0 or 200 uM; Eterna round: R93 (includes R88 designs)
Outline: as §1

Sequence | apparent KD of MS2 coat protein (MS2 coat protein [1]) [µM] | apparent KD of MS2 coat protein (MS2 coat protein [2]) [µM]
AAGAACGUAGGAUAUACAAAAUAAAAGAAAAGAAAGAAAGAACAUGAGGAUCACCCAUGUAGAAGGGCGAAGAA [Sekhemresewadjtawy Sobekhotep III] | 0.0396 | 0.0495
AAGAACUGAGGAUAUACAUGAGGAUCACCCAUGUAAAAGAAAGAAAAGGGAAAGAAAAGUAGAAGGCAGAAGAA [Nebmaatre Amenhotep III] | 0.0428 | 0.0369
AAGAAGACAGGAUAUACAUGAGGAUCACCCAUGUAAAAGAAAGAGGGAAAAGAGAAAAGUAGAAGGGUCAAGAA [Ptolemy III Euergetes I] | 0.0205 | 0.0168
AAGAAGACAGGAUAUACUAAAGAAAUGAAAAGAAAGAAAGAACAUGAGGAUCACCCAUGUAGAAGGGUCAAGAA [Sewahenre Senebmiu] | 0.0451 | 0.0662
AAGAAGCGAGGAUAUACAAAAUAAAAGAAAAGAAAGAAAGAACAUGAGGAUCACCCAUGUAGAAGGUGCAAGAA [Sehetepkare Intef IV] | 0.0435 | 0.0467
AAGAAGGUAGGAUAUACAAAAUAAAAGAAAAGAAAGAAAGAACAUGAGGAUCACCCAUGUAGAAGGACCAAGAA [Khutawyre Wegaf] | 0.0177 | 0.0343
AAGAAGGUAGGAUAUACAAAAUAAAAGAAAAGAAAGAAAGAACAUGAGGAUCACCCAUGUAGAAGGGCCAAGAA [Khendjer] | 0.0353 | 0.0842
AAGAAGGUAGGAUAUACAUGAGGAUCACCCAUGUAAAAGAAAGAAAAGGGAAAGAAAAGUAGAAGGACCAAGAA [Kheperkheperure Ay] | 0.0443 | 0.0329
AAGAAGUCAGGAUAUCCAAAAGAAAAGAAAAGAAAAGAAAAGGAGAAGGGACAUGAGGAUCACCCAUGUAAGAA [Khnemibre Ahmose II] | 0.0209 | 0.0713
AAGAAGUCAGGAUAUGUCUGUGCGAAAAAAAAAAAGUGCAGACAGAAGGGACAUGAGGAUCACCCAUGUGGAAA [Florian 65% 7] | 0.0553 | 0.0468
AAGAAGUGAGGAUAUACAUGAACGAAAAAAAAAAAGAGCAUGUAGAAGGCACAUGAGGAUCACCCAUGUCAAAA [Georg Simmel] | 0.0278 | 0.0293
AAGAAGUGAGGAUAUCGAAGACAGACGAAAAGUCUGUCAAGCGAGAAGGCACAUGAGGAUCACCCAUGUGGAAG [Mat - Exaclusion 4 - Eli mod - D80] | 0.0334 | 0.0318
AAGAAUCAAGGAUAUACAAGGAAGAAAGAAAAGAAAAGAAAACAUGAGGAUCACCCAUGUAGAAGGUGAUAGAA [EteRNA is fun!] | 0.846 | 0.327
AAGAUGUCAGGAUAUACAUAAAUAAAAAAUUAUGUUAAAACACAUGAGGAUCACCCAUGUAGAAGGGACAUCAA [AJ 7] | 0.0155 | 0.0172
AAGGAGUAAGGAUAUCGGAAAGGACACGAAAGUGACAAAGACGAGAAGGUACAUGAGGAUCACCCAUGUAAAAA [milkweed 23] | 0.0145 | 0.0249
AAGGAGUGAGGAUAUCGGAAAGGACACGAAAGUGACAAAGACGAGAAGGCACAUGAGGAUCACCCAUGUAAAAA [milkweed 22] | 0.0346 | 0.0387
AAGGGACAUGAGGAUCACCCAUGUCAGGAUAUGCUAUGGAAAAUAAAAAUAAAACAUAGCAGAAGGGACAAAAA [Denovo 4] | 0.0531 | 0.0385
AAGGGACAUGAGGAUCACCCAUGUGAGGAUAUGAUGCGAAUAAAGAAAGAAUAAAGCAUCAGAAGGCACACCAA [Mat - Exclusion 1 - Eli mod - D66] | 0.109 | 0.0772
AAGUCCAUAGGAUAUAUAUGGAUAUACAUUUAUGUAGAACUACAUGAGGAUCACCCAUGUAGAAGGAUGGAAUA [Mat - Same state - Mayanna Mod - D141] | 0.0141 | 0.0195
AAGUUAUUAGGAUAUACUUGUGCGAUCCAUACGUUGAUAUUACAUGAGGAUCACCCAUGUAGAAGGAAUAAAAA [JR_Exc002_Sub414] | 0.0452 | 0.0482

Sequence | apparent KD of MS2 coat protein (MS2 coat protein [1]) [µM] | apparent KD of MS2 coat protein (MS2 coat protein [2]) [µM]
AAGUUGACAGGAUAUACUUGGGCAACAAAUAAACUAAUAUAACAUGAGGAUCACCCAUGUAGAAGGGUCAGAAA [JR_Exc002_Sub207] | 0.0564 | 0.0463
AAUAGUGAAGGAUAUACAGGAGAAGUACGAUAAAAGAAAGAACAUGAGGAUCACCCAUGUAGAAGGUCAGAAGU [JR_Exc002_Sub1228] | 0.0263 | 0.0336
ACAAACCUAGGAUAUACAUGAGGAUCACCCAUGUACAAAGGCGUAGGCGACAAAAGAGGUAGAAGGAGGAAAGG [Disoed] | 0.0229 | 0.0219
ACAAGAUCAGGAUAUACAUGAGGAUCACCCAUGUGAAAGAACGAUUAACGACCAGCAAGUAGAAGGGAUCAGGA [Ruby 82] | 0.0285 | 0.0205
ACAGUUACAGGAUAUACAUAGGAAAAAAAAAAAAAAAUUCAACAUGAGGAUCACCCAUGUAGAAGGGUAACUGA [Ex2 Design 173: Random 2B] | 0.144 | 0.0933
ACGAACCUAGGAUAUACAUGAGGAUCACCCAUGUACAACUAUCCAUGAAUGACACUCGGUAGAAGGAGGAUCAA [Rileenen] | 0.0229 | 0.015
ACUUGACAUGAGGAUCACCCAUGUCAGGAUAUAGUAGGACAAAUAAAUAAAAGUUCUACUAGAAGGGAUAUGGA [Design 18: G-U+ 3] | 0.0157 | 0.0167
AGAAUACAUGAGGAUCACCCAUGUGAGGAUAUCAAAAGAAAAAGAAAAGAAAAGAAAAUGAGAAGGCACAAAAG [EX 1 May 14] | 0.0517 | 0.0483
AGCAAACAUGAGGAUCACCCAUGUCAGGAUAUGAACGAAAUAAAUAAAAAAUAAAAGUUCAGAAGGGACGAGCA [Mat - Exclusion 1 - Eli mod - D25] | 0.0429 | 0.0324
AGCAAACAUGAGGAUCACCCAUGUGAGGAUAUGAACGAAAUAAAAUAAAAAUAAAAGUUCAGAAGGCACGAGCA [Mat - Exclusion 1 - Eli mod - D26] | 0.0374 | 0.0273
AGCAAGUUAGGAUAUGCGAAGUCAGGACACACACUGACAAAGCAGAAGGAACAUGAGGAUCACCCAUGUAAGCA [Mat - Exaclusion 4 - Eli mod - D64] | 0.0208 | 0.0299
AGCACGUCAGGAUAUACGAACACAAAGGGUAACAACAAGGGACAUGAGGAUCACCCAUGUAGAAGGGACUAGCA [Diamond 96] | 0.0619 | 0.0582
AGCAGUACAGGAUAUACAUGAGGAUCACCCAUGUGAAAAUAAAGUGGCGUACCACAAAGUAGAAGGGUACUGCA [Mat - Exclusion 3 - JL mod - D31] | 0.104 | 0.0342
AGCUAGCGAGGAUAUGCGAACAUGUCAAAAGACGUGAAGGGACAUGAGGAUCACCCAUGUAGAAGGCGCUAGCA [JL 74% mod 4] | 0.0296 | 0.0247
AGCUAGCUAGGAUAUACGAACAUGUCAAAAGACGUGAAGGGACAUGAGGAUCACCCAUGUAGAAGGAGCUAGCA [JL 74% mod 6] | 0.121 | 0.0287
AGCUAGUCAGGAUAUACAAAAAUGACAGAAGACGUAAGGGAACAUGAGGAUCACCCAUGUAGAAGGGACUAGCA [Diamond 43] | 0.184 | 0.0615
AGCUAGUCAGGAUAUACAUAAAAAAAAAAAAAAAGUGAUAAACAUGAGGAUCACCCAUGUAGAAGGGACUAGCA [Similarities v.4.2 (34 mutated to A)] | 0.0483 | 0.029
AGCUAGUCAGGAUAUACGAACAUGUAAAAAGACGUGAAGGGACAUGAGGAUCACCCAUGUAGAAGGGACUAGCA [74%, Web mod - With 1 less C's] | 0.108 | 0.0339
AGCUAGUCAGGAUAUGCAUGAAUGUCAAAAGACGUAAAGGGACAUGAGGAUCACCCAUGUAGAAGGGACUAGCA [JL In the Red 4?] | 0.277 | 0.12
AGCUAGUGAGGAUAUACAAGAAUAUAAACAAAAAUGAAGGGACAUGAGGAUCACCCAUGUAGAAGGCACUAGCA [Diamond 72] | 0.221 | 0.0552
